Assay [1] addresses T1, murine FGFR3b expressed with a C-terminal myc-myc-hexahistidine tag (mFGFR3b.mmH) (murine).
T1 construct: also called REGN3215; monomeric murine FGFR3b
T1 chain: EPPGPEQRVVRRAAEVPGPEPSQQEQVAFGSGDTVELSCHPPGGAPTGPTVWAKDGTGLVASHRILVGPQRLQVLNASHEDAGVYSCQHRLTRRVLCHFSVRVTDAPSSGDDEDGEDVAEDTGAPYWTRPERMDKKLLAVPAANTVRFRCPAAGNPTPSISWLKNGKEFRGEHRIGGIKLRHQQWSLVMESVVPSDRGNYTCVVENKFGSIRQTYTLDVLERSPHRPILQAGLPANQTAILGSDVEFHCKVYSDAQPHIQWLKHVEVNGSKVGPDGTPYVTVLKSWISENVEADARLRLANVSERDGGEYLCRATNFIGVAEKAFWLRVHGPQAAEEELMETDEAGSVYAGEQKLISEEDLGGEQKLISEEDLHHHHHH
Briefly: SPR Biacore, mAb captured on anti-hFc, 25C.

The target of assay [2] is T2, cynomolgus FGFR3b expressed with a C-terminal myc-myc-hexahistidine tag (mfFGFR3b.mmH) (cynomolgus).
T2 construct: also called REGN3521; mf FGFR3b ecto (R357G)(E23-G377;R357G).mmH
T2 chain: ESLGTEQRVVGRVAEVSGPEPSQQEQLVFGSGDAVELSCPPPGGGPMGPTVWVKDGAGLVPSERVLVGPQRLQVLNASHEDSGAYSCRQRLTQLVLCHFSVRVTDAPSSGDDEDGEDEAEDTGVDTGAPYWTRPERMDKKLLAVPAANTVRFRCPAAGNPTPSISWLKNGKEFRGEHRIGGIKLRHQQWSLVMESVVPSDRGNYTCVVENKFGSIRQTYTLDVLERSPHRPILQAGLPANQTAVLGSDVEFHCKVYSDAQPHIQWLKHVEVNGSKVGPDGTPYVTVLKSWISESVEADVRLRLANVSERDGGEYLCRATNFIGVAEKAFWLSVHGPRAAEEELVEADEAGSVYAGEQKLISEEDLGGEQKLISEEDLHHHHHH
Briefly: SPR Biacore, mAb captured on anti-hFc, 25C.

The results in this text go back to US20240158515A1 (Regeneron, published 2024).

B1: H4H30063P (antibody, human IgG4 S228P, kappa, V domains shown)
VH: QVQLQESGPGLVKPSETLSLTCTVSGDSINSYFWSWIRQLPGKELEWIGHIYSSGSTRYNPSLQSRVTISIDTSKNQFSLKLSSVTAADTAVYYCARGASAVDYWGQGTLVTVSS
VL: EIVLTQSPGTLSLSPGERATLSCRTSQSISSGYLAWYQQKPGQAPRLLIYGASRRATGIPDRFSGSGSGTDFTLTISRLEPEDFVVYYCQQYGSSPYTFGQGTKLEIKR
notes: HCVR 2, LCVR 10; also called REGN15684
Regarding B1, in assay [1], the “90 nM mFGFR3b.mmH Bind (RU)” value is 259 RU, the dissociation constant (Kd) was 0.137 nM, the off-rate constant (koff) came to 2.78e-05 s⁻¹ and the kon was determined as 204000 M⁻¹ s⁻¹. Further, in assay [1], the “t½” value is 6.92 h. In assay [2], the “90 nM mfFGFR3b.mmH Bind (RU)” value was determined as 212 RU, the Kd was 0.275 nM, the koff was determined as 4.21e-05 s⁻¹ and the kon turned out to be 153000 M⁻¹ s⁻¹. In addition, the “t½” value in assay [2] was 4.58 h.
